According to patent publication US12070483B2, “Compositions and methods for treatment of acute lung injury” (THE TRUSTEES OF THE UNIVERSITY OF PENNSYLVANIA, priority 2018, dated 2024):

Experiments:
recombinant hPrdx6 = target: T1, recombinant hPrdx6 (Homo sapiens, UniProt P30041); assay: aiPLA2 activity of recombinant human Prdx6 in presence of peptide; assay type: biochemical; settings: for aiPLA2 activity of human recombinant protein: Table 2, hPrdx6 only 92.0
T1 sequence (P30041 1-224): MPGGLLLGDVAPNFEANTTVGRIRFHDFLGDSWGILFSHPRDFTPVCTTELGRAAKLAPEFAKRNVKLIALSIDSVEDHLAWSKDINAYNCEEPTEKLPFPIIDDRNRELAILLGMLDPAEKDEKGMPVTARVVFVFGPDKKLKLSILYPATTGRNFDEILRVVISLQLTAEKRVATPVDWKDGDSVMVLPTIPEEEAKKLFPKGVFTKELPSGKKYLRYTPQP

Prdx6 = target: T2, Prdx6 (Mus musculus, UniProt O08709); assay: aiPLA2 (Prdx6-PLA2) activity of mouse lung homogenate after IT or IV injection of PIP; assay type: in vivo; design: key to aiPLA2 activity, figure in parentheses (0 h = 100): Prdx6-PLA2 activity as % of 0 h value (0 h = 100); settings: for Prdx6-PLA2 activity of mouse lung homogenate: Table 6; for aiPLA2 activity of mouse lung: 24 hours after IV injection, 2 μg/g, liposomes only 8.81
T2 construct: from tissue; host or cells: mouse lung homogenate (wild type mice)
T2 sequence (O08709 1-224): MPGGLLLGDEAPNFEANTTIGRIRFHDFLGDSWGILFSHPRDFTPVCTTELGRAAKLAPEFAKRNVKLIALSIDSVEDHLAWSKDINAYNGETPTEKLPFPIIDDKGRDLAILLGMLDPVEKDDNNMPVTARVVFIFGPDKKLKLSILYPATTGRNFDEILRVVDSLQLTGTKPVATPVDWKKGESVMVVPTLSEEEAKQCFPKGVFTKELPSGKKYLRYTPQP
Procedure: FIG. 6: PIP-2 in liposomes was administered to mice either intratracheally (IT) or intravenously (IV) at 0 time. Lungs were harvested at intervals between 4 and 72 h after the PIP-2 administration, homogenized, and analyzed for Prdx6-PLA2 activity. PIP-2 is effective by either the IT or IV route with a calculated ½ time for recovery of ˜50 h. Results are mean+SE for N=3-4.
PIP-2 in liposomes injected IV or IT inhibits Prdx6 activity of the lung homogenate. Maximal inhibition was seen within 4 hours after administration of PIP-2. Recovery from inhibition began at ˜36 hours and was complete by 48 hours. Results are similar for PIP-1,2,4 (PIP-3 and -5 were not tested). […] Effectiveness requires liposomes for peptide delivery. Inhibition after IT or IV administration was similar.

NOX2 = assay: ROS production (Amplex red) of isolated perfused mouse lung stimulated with angiotensin II; assay type: in vivo; settings: for ROS production by AngII-activated NOX2 in the isolated mouse lung: ex_vivo
Procedure: FIGS. 5A and 5B: PIP-2, incorporated within liposomes, was instilled intratracheally prior to lung isolation. FIG. 5A: Isolated lungs were perfused in a recirculating system with artificial medium. NOX2 activity was stimulated by addition of angiotensin II (Ang II). Amplex red along with horseradish peroxidase were added to the perfusate for detection of ROS production. Aliquots of perfusate were analyzed at intervals by spectrophotometry to determine oxidation of amplex red, indicating ROS production. Results are mean±SE for N=3-4. FIG. 5B: Mice were sacrificed at 6, 12, or 24 h after LPS administration ([…]) and lungs were perfused in situ for 15 min with saline solution containing a fluorophore (difluorofluorescein diacetate, DFFDA). Lungs then were homogenized and fluorescence of the lung homogenate was determined as an index of ROS production. Results for FIG. 5A & FIG. 5B are mean±SE for N=4. *P<0.05 vs corresponding LPS and LPS+PIP-2; § P<0.05 vs 12 h and 24 h LPS; ΔP<0.05 vs corresponding LPS.
FIG. 8: PLA2 inhibitory peptide (PIP-2) inhibits ROS production stimulated by angiotensin II (Ang II) in isolated perfused mouse lung. PIP-2 (2 μg/g body weight) was administered to intact wild type (WT) mice by the IV route. […] After 30 mins, lungs were isolated from anesthesized mice and perfused in a recirculating system with added Ang II ([…]) as a Nox2 activator and Amplex red plus horseradish peroxidase to detect perfusate ROS. WT basal lungs were not stimulated with Ang II. After a 15 min equilibration period (called zero time), aliquots were taken at 15 min intervals for analysis of fluorescence. Each plotted point represents the mean±SE for n=3. The lines were drawn by the least mean squares method. The mean rates of ROS […] calculated from the slope of each line are indicated in parentheses. *P<0.05 vs the other 3 slopes.
FIG. 10: Effect of liposome composition on delivery of PIP-2 to lungs after IV administration. […]
The effect of the PIPs on ROS production in control (untreated) lungs was determined in vitro with isolated perfused lungs. […] The basal rate of ROS production was evaluated with WT lungs that were perfused in the absence of AngII. […] Aliquots of perfusate were taken at 15 min intervals and analyzed by fluorescence for resorufin (λexcitation 568 nm, λemission 581 nm), the product of Amplex red oxidation. The rate of Amplex red oxidation was calculated and expressed as arbitrary fluorescence units (AFU) with normalization to mouse body wt. There was a low rate of Amplex red oxidation in the absence of HRP in the perfusate (˜7% of the AngII-stimulated fluorescence), indicating a non-ROS-mediated oxidation of the fluorophore; this value was subtracted to obtain the reported values.

LHDFRHQIL (Inhibitory peptide.) [PIP-2]
aiPLA2 activity of human recombinant protein (recombinant hPrdx6): 29.9 nmol/min/mg prot. | aiPLA2 activity of human recombinant Prdx6 (recombinant hPrdx6; Table 3, hPrdx6 only 99.91): 26.18 nmol/min/mg prot. | aiPLA2 activity of mouse lung homogenate (Prdx6; IT, 0 h post injection): 8.84 ± 0.35 nmol/hr/mg protein | aiPLA2 activity, figure in parentheses (0 h = 100) (Prdx6; IT, 0 h post injection): 100 | aiPLA2 activity of mouse lung homogenate (Prdx6; IT, 4 h post injection): 1.56 ± 0.03 nmol/hr/mg protein | aiPLA2 activity, figure in parentheses (0 h = 100) (Prdx6; IT, 4 h post injection): 18 | aiPLA2 activity of mouse lung homogenate (Prdx6; IT, 12 h post injection): 1.61 ± 0.04 nmol/hr/mg protein | aiPLA2 activity, figure in parentheses (0 h = 100) (Prdx6; IT, 12 h post injection): 18 | aiPLA2 activity of mouse lung homogenate (Prdx6; IT, 24 h post injection): 1.63 ± 0.14 nmol/hr/mg protein | aiPLA2 activity, figure in parentheses (0 h = 100) (Prdx6; IT, 24 h post injection): 18 | aiPLA2 activity of mouse lung homogenate (Prdx6; IT, 36 h post injection): 2.04 ± 0.04 nmol/hr/mg protein | aiPLA2 activity, figure in parentheses (0 h = 100) (Prdx6; IT, 36 h post injection): 27 | aiPLA2 activity of mouse lung homogenate (Prdx6; IT, 48 h post injection): 2.95 ± 0.10 nmol/hr/mg protein | aiPLA2 activity, figure in parentheses (0 h = 100) (Prdx6; IT, 48 h post injection): 33 | aiPLA2 activity of mouse lung homogenate (Prdx6; IT, 72 h post injection): 8.78 ± 0.18 nmol/hr/mg protein | aiPLA2 activity, figure in parentheses (0 h = 100) (Prdx6; IT, 72 h post injection): 99 | aiPLA2 activity of mouse lung homogenate (Prdx6; IV, 0 h post injection): 8.85 ± 0.3 nmol/hr/mg protein | aiPLA2 activity, figure in parentheses (0 h = 100) (Prdx6; IV, 0 h post injection): 100 | aiPLA2 activity of mouse lung homogenate (Prdx6; IV, 4 h post injection): 1.45 ± 0.07 nmol/hr/mg protein | aiPLA2 activity, figure in parentheses (0 h = 100) (Prdx6; IV, 4 h post injection): 16 | aiPLA2 activity of mouse lung homogenate (Prdx6; IV, 12 h post injection): 1.58 ± 0.04 nmol/hr/mg protein | aiPLA2 activity, figure in parentheses (0 h = 100) (Prdx6; IV, 12 h post injection): 18 | aiPLA2 activity of mouse lung homogenate (Prdx6; IV, 24 h post injection): 1.77 ± 0.11 nmol/hr/mg protein | aiPLA2 activity, figure in parentheses (0 h = 100) (Prdx6; IV, 24 h post injection): 20 | aiPLA2 activity of mouse lung homogenate (Prdx6; IV, 36 h post injection): 2.14 ± 0.03 nmol/hr/mg protein | aiPLA2 activity, figure in parentheses (0 h = 100) (Prdx6; IV, 36 h post injection): 24 | aiPLA2 activity of mouse lung homogenate (Prdx6; IV, 48 h post injection): 3.03 ± 0.05 nmol/hr/mg protein | aiPLA2 activity, figure in parentheses (0 h = 100) (Prdx6; IV, 48 h post injection): 34 | aiPLA2 activity of mouse lung homogenate (Prdx6; IV, 72 h post injection): 8.49 ± 0.10 nmol/hr/mg protein | aiPLA2 activity, figure in parentheses (0 h = 100) (Prdx6; IV, 72 h post injection): 96 | time at which recovery from inhibition began (Prdx6; PIP-2 in liposomes IV or IT): ~36 h | time at which recovery from inhibition was complete (Prdx6; PIP-2 in liposomes IV or IT): ≤ 48 h | time to maximal inhibition of Prdx6 activity of lung homogenate (Prdx6; PIP-2 in liposomes IV or IT): ≤ 4 h | calculated ½ time for recovery of Prdx6-PLA2 activity (Prdx6; PIP-2 in liposomes, IT or IV): ~50 h | Prdx6-PLA2 activity of mouse lung homogenate (Prdx6; IT, lungs lavaged prior to assay, 0 post injection): 8.1 ± 0.3 nmol/hr/mg protein | Prdx6-PLA2 activity of mouse lung homogenate (Prdx6; IT, lungs lavaged, 24 hr post injection): 1.2 ± 0.02 nmol/hr/mg protein | Prdx6-PLA2 activity of mouse lung homogenate (Prdx6; IT, lungs lavaged, 48 hr post injection): 3.0 ± 0.2 nmol/hr/mg protein | Prdx6-PLA2 activity of mouse lung homogenate (Prdx6; IT, lungs lavaged, 72 hr post injection): 8.3 ± 0.9 nmol/hr/mg protein | inhibition of ROS production (NOX2; PIP-2 2 μg/g in liposomes IV, WT lungs, Ang II 50 μM): ~75% | ROS production by AngII-activated NOX2 in the isolated mouse lung (NOX2): inhibit ROS production

LYEIKHQIL (Inhibitory peptide.) [PIP-4]
aiPLA2 activity of human recombinant protein (recombinant hPrdx6): 32.3 nmol/min/mg prot. | aiPLA2 activity of mouse lung (Prdx6; alone, no liposomes): 8.43 ± 0.23 (n = 3) nmol/hr/mg prot | aiPLA2 activity of mouse lung (Prdx6; in liposomes): 1.55 ± 0.02 (n = 3) nmol/hr/mg prot | Prdx6-PLA2 activity of mouse lung homogenate (Prdx6; IV, 0 post injection): 8.0 ± 0.7 nmol/hr/mg protein | Prdx6-PLA2 activity of mouse lung homogenate (Prdx6; IV, 24 hr post injection): 1.1 ± 0.02 nmol/hr/mg protein | Prdx6-PLA2 activity of mouse lung homogenate (Prdx6; IV, 48 hr post injection): 2.8 ± 0.2 nmol/hr/mg protein | Prdx6-PLA2 activity of mouse lung homogenate (Prdx6; IV, 72 hr post injection): 7.8 ± 1.2 nmol/hr/mg protein | Prdx6-PLA2 activity of mouse lung homogenate (Prdx6; IV, 96 hr post injection): 8.1 ± 0.2 nmol/hr/mg protein | ROS production by AngII-activated NOX2 in the isolated mouse lung (NOX2): inhibit ROS production
